In patent publication US6008193A, “Methods of using human von Willebrand factor GPIb binding domain polypeptides” (Bio-Technology General Corp., priority 1995, dated 1999):
Values joined by “and” are separate entries in the source; they are usually repeats but may differ in a detail not shown here. Identical values can stand only once.

How the values were obtained:
[1] = tested on: rat platelet rich plasma (PRP); assay: vWF-dependent platelet aggregation assay in platelet rich plasma (PRP); type: cell-based; settings: ristocetin up to 5.0 mg/ml, no additional agent
Description: This is a standardized von Willebrand Factor (vWF)-dependent aggregation assay using human or rat platelet rich plasma (PRP). The addition of various concentrations of unfractionated Bothrops jararaca venom (BJV), which includes botrocetin and an additional thrombin-like component, or ristocetin results in an aggregatory response in the absence of any additional agent. Using ristocetin (1.5 mg/ml) as the agonist 43 μg/ml VCL abolished the aggregation of human PRP.

[2] = target: platelet glycoprotein Ib (GPIb) (human) (UniProt P07359); assay: platelet adhesion to immobilized VCL on a glass cover slip in a laminar flow cell
[3] = target: platelet glycoprotein Ib (GPIb) (human) (UniProt P07359)
[4] = target: platelet glycoprotein Ib (GPIb) (human) (UniProt P07359); remark: listed apart in the source
[5] = target: platelet glycoprotein Ib (GPIb) (human) (UniProt P07359); remark: listed apart in the source
[6] = target: platelet glycoprotein Ib (GPIb) (human) (UniProt P07359); remark: listed apart in the source
[7] = target: platelet glycoprotein Ib (GPIb) (human) (UniProt P07359); remark: listed apart in the source
[8] = target: platelet glycoprotein Ib (GPIb) (human) (UniProt P07359); remark: listed apart in the source
[9] = target: platelet glycoprotein Ib (GPIb) (human) (UniProt P07359); remark: listed apart in the source
[10] = target: platelet glycoprotein Ib (GPIb) (human) (UniProt P07359); remark: listed apart in the source
[11] = target: platelet glycoprotein Ib (GPIb) (human) (UniProt P07359); remark: listed apart in the source
[12] = target: platelet glycoprotein Ib (GPIb) (human) (UniProt P07359); remark: listed apart in the source
[13] = target: platelet glycoprotein Ib (GPIb) (human) (UniProt P07359); assay: platelet adhesion to immobilized VCL against immobilized albumin in a laminar flow cell
[14] = target: platelet glycoprotein Ib (GPIb) (human) (UniProt P07359); remark: listed apart in the source

percent coverage of the test surface by platelets [2] [% coverage]	% Inhibition of Platelet Aggregation (ristocetin induced, washed human platelets with intact vWF) [3] [%]	IC50, platelet adhesion to ECM at a shear rate of 1300 s^-1 [4] [µM]	platelet adhesion to immobilized fibrinogen in a laminar flow cell [5] [% inhibition]	Ristocetin induced platelet aggregation (RIPA) [6] [% inhibition]	platelet adhesion to immobilized collagen (type I) in a laminar flow cell [8] [% inhibition]	platelet adhesion to endothelial cell extracellular matrix (ECM) in a laminar flow cell [9] [% inhibition]	platelet adhesion to immobilized vWF in a laminar flow cell [10] [% inhibition]	Dissolution of preformed aggregates (made by RIPA) [11] [µM VCL]	IC50, Asialo vWF induced platelet aggregation [11] [µM VCL]	IC50, Platelet deposition under conditions of flow (everted denuded human umbilical artery, whole human blood) [11] [µM VCL]	IC50, Ristocetin induced platelet aggregation [11]	IC50, Thrombin induced platelet aggregation [11] [µM VCL]	platelet adhesion to immobilized fibronectin in a laminar flow cell [12] [% inhibition]	fold of adhesion to albumin [13] [fold]	% Inhibition of Platelet Aggregation (asialo-vWF induced, in PRP) [14] [%]	Substance	Aggregation of rat PRP induced by ristocetin [1]	platelet deposition on damaged porcine aorta perfused ex vivo with normal human blood [7] [% reduction]
–	–	–	–	–	–	–	–	–	–	–	–	–	–	–	–	ristocetin	did not cause measurable aggregation	–
< 5	100	0.8	75	100	50	70	25	0.5	0.15	1	0.2 µM VCL and 0.3 µM VCL	0.3	80	10	76	VCL, a vWF GPIb binding domain polypeptide (methionine plus amino acids 504-728 of mature human vWF) (ligand)	–	60
